This is an account of results in patent US20220218838A1, “ADC FOR A TREATMENT CONCOMITANT WITH OR SUBSEQUENT TO DOCETAXEL” (PIERRE FABRE MEDICAMENT, priority 2019, published 2022).

The target in assay [1] is IGF-IR (Homo sapiens, UniProt P08069). The conditions noted are these: read-out: Kd of binding to IGF-IR; cited from earlier work.
Assay [2] relates to MCF-7 tumour. The experiment in a line: In-vivo activity in a breast cancer model: nude mice grafted with MCF-7 cells, after onset of docetaxel resistance. Particulars: docetaxel 9 mg/kg intravenously, 5 injections, mice bearing MCF-7 tumours.
Procedure: Determination of in-vivo activity: In-vivo activity is tested in a breast cancer model: 7-week old nude female mice (Charles River Laboratories, n=15) were subcutaneously grafted with 5×10^6 MCF-7 cells 1 day after subcutaneous implantation of 0.72 mg of granules releasing 17β-estradiol (Innovative Research of America) for 60 days.
The mice are randomised, and treatment is initiated when the tumours reach a size of approximately 150 mm^3. The tumour volume (length×width×height×0.52) is measured at least twice a week and the therapeutic response is defined using solid tumour response criteria (RECIST).
Mice bearing MCF-7 tumours are injected intravenously with docetaxel, 9 mg/kg twice a week for a total of 5 injections.
The percentage of the regression values is calculated using the following formula:
where T=the tumour volume in the treated group, ΔT=the tumour volume in the treated group on the day of the study minus the tumour volume in the treated group on the initial day of administration, and Tinitial=the tumour volume in the treated group on the initial day of the administration The disease is considered to be progressing when the tumour size increases by >20%. Partial regression (PR) is defined as a reduction in tumour size >30%. […]

IGF-IR, sequence (P08069 31-736 limits assumed): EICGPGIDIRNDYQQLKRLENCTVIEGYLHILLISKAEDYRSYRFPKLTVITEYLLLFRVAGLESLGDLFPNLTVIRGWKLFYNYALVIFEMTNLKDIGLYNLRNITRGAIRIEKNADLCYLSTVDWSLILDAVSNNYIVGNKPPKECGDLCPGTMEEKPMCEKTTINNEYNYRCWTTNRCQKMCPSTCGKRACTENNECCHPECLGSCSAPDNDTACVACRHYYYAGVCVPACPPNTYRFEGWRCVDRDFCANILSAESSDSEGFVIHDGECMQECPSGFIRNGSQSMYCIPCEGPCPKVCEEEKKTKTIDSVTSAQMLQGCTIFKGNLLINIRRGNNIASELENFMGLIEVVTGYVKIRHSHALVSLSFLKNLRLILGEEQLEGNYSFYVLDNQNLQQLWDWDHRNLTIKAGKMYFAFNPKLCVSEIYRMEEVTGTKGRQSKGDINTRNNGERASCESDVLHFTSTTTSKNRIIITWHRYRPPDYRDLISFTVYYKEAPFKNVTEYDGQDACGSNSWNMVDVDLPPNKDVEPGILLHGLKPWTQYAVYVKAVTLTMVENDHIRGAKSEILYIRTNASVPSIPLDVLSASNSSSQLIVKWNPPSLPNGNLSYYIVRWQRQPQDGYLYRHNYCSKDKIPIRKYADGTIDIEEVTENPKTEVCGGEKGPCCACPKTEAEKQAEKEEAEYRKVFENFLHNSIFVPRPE
IGF-IR, sequence (P08069 741-1367 partner limits assumed): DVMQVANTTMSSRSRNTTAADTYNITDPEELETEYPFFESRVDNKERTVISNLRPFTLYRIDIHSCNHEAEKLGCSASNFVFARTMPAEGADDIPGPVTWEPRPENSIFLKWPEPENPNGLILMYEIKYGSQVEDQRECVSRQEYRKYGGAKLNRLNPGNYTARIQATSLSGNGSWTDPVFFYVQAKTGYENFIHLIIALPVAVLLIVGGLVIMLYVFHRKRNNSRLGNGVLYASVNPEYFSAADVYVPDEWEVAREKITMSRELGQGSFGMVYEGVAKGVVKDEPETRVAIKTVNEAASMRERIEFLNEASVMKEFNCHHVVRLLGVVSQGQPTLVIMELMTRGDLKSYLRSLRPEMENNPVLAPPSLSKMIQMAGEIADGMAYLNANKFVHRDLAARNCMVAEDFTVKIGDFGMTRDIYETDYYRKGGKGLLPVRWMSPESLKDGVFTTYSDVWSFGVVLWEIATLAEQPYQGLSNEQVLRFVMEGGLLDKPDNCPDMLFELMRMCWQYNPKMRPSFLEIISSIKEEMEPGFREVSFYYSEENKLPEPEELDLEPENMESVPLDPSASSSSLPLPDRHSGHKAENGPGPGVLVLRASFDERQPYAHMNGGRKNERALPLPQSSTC

In the case of IGF2: natural ligand bound by IGF-IR, the Kd (in general, the constant that tells how readily two partners part at equilibrium) in assay [1] was approximately 1 nM. `CC(=O)O[C@@]12CO[C@@H]1C[C@H](O)[C@@]1(C)C(=O)[C@H](O)C3=C(C)[C@@H](OC(=O)[C@H](O)[C@@H](NC(=O)OC(C)(C)C)c4ccccc4)C[C@@](O)([C@@H](OC(=O)c4ccccc4)[C@H]21)C3(C)C` [docetaxel]: in assay [2], the “time after which the tumours became resistant to docetaxel and relapsed” value is 70 days.
